# Where a chain is given by its changes, count along the chain named.
# T1: CTLA4.B3.B6.D5 I-OnuI HE variant (Ophiostoma novo-ulmi)
# T1 chain: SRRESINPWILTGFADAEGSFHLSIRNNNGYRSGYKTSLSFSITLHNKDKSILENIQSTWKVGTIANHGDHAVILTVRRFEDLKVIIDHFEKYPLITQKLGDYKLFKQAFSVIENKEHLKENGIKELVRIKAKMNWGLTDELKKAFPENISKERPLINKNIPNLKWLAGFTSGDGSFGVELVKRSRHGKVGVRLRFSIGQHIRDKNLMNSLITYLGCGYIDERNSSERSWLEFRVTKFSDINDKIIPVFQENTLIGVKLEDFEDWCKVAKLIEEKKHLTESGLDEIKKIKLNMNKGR
# T2: CTLA4.B3.B6 I-OnuI HE variant (Ophiostoma novo-ulmi)
# T2 chain: T1 chain with R228K
# B1: CTLA4 exon 2 HE target site (dsDNA)
# DNA 1: TGGAGATGCATACTCACACACA
# DNA 2: TGTGTGTGAGTATGCATCTCCA
# Tests used:
# [1] = target: T1, CTLA4.B3.B6.D5 I-OnuI HE variant; assay: flow; sub-nanomolar affinity; yeast surface affinity titration, value only in figure; settings: tags: yeast surface display
# [2] = target: T2, CTLA4.B3.B6 I-OnuI HE variant; assay: cell_activity; chromosomal iRFP reporter in HEK 293T
# Protocol: (§1) The activity of reprogrammed I-OnuI HEs that target exon 2 of the CTLA4 gene was measured using a chromosomally integrated fluorescent reporter system (Certo et. al., 2011). Fully reprogrammed I-OnuI HEs that bind and cleave the CTLA4 target sequence (SEQ ID NO: 13) were cloned into mammalian expression plasmids and then individually transfected into a HEK 293T […] cell line that contained the CTLA4 target sequence upstream of an out-of-frame gene encoding the fluorescent iRFP protein. Cleavage of the embedded target site by the HE and the accumulation of indels following DNA repair via the non-homologous end joining (NHEJ) pathway results in approximately one out of three repaired loci placing the fluorescent reporter gene back “in-frame”. The percentage of iRFP fluorescing HEK 293T cells is therefore used a readout of endonuclease activity at the chromosomally embedded target sequence. […] FIG. 3 (left panel).
# (§2) A secondary I-OnuI variant library was generated by performing random mutagenesis on the CTLA4.B3 HE variant (SEQ ID NO: 6). Display-based flow sorting was performed under more stringent cleavage conditions to isolate variants with improved catalytic efficiency. […] FIG. 3 (middle panel). […] FIG. 3 (right panel).
# [3] = target: T1, CTLA4.B3.B6.D5 I-OnuI HE variant; assay: as above
# Protocol: as §1, §2
binder,measurement,setting,value
B1,Kd,[1],< 1 nM
same,activity,[2],~3 fold vs CTLA4.B3
same,activity,[3],~2 fold vs CTLA4.B3.B6
